According to patent US20250092133A1 (Amgen, published 2025):

T1: Hu CDH3 Dom2 mu (aa 216-327), human/mouse chimeric CDH3 on CHO cells (chimeric hu/mu)
T1 chain: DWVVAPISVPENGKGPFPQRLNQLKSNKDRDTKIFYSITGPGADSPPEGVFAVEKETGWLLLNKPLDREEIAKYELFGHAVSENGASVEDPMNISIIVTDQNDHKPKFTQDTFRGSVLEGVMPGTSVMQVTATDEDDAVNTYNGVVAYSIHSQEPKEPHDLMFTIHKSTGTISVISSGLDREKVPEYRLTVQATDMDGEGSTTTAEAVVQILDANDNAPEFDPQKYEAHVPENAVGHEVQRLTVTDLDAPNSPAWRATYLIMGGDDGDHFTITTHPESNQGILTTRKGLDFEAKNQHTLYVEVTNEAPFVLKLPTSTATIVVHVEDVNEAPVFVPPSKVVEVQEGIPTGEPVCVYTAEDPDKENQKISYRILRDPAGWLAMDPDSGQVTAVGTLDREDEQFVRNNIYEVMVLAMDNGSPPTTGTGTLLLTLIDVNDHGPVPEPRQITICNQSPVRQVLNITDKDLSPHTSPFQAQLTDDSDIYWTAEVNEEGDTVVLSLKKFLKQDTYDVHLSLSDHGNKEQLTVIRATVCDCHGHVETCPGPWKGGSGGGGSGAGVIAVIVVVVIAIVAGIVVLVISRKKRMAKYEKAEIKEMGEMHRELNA

T2: Hu CDH3 Dom1C mu (aa 180-215), human/mouse chimeric CDH3 on CHO cells (chimeric hu/mu, UniProt P22223 108-681 (human entry))
T2 chain: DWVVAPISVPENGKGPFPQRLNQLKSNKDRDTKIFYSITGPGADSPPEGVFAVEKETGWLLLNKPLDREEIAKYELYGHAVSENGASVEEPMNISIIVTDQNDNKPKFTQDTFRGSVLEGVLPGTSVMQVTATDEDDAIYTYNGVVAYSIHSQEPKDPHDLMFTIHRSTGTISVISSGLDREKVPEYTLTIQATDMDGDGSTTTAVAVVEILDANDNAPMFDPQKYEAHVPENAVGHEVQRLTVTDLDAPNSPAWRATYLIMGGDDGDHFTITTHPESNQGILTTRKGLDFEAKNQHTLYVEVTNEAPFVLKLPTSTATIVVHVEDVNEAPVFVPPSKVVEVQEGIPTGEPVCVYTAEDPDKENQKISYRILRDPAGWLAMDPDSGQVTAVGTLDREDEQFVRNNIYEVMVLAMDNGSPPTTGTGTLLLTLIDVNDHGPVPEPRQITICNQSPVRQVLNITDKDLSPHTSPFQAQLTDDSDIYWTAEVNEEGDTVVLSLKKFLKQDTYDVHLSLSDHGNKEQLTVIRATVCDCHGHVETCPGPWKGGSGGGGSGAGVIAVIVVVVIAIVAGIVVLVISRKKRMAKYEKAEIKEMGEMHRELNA

T3: murine CDH3 on cells (mouse, UniProt P10287 100-822)
T3 construct: negative control; also called mouse CDH3
T3 sequence: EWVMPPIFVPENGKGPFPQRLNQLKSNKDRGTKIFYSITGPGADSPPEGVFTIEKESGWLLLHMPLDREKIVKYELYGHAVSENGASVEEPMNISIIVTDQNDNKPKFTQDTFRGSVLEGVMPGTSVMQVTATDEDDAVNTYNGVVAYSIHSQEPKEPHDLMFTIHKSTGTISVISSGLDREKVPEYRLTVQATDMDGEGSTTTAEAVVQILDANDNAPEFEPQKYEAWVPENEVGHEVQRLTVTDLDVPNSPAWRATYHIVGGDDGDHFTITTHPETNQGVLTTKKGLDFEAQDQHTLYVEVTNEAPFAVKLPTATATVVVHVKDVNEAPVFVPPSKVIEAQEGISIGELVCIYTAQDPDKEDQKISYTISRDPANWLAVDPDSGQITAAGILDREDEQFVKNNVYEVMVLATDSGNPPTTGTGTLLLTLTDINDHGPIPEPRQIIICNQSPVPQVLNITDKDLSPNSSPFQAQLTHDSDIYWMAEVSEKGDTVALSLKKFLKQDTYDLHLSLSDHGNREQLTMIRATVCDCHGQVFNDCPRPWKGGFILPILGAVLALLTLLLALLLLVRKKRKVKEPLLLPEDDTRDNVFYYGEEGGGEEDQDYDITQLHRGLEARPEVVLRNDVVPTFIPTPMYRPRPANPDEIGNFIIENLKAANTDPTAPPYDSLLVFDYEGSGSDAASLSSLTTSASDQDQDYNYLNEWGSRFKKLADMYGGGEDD

B1: CDH3-8 (scFv)
scFv: EVQLVEQSGAEVVKPGASVKITCKASGYAFSSYWMNWVRQRPGKGLEWIGHIYPGDGDTNYNGKFKGKVTLTADKSSNTAYMQLSDLTPEDSAVYFCARDRGSFGAWFAYWGQGTTVTVSSGGGGSGGGGSGGGGSELVMTQTPSSLSASLGDRVTISCRASQDISNYLNWYQQKPDGTVKLLIYYTSRLHSGVPSRFSGSGSGTDYSLTISNLEQEDIATYFCQQGNRNPPTFGGGTKLEIK
notes: Used as crude periplasmic extract and detected through a FLAG tag; also called CDH3-8 scFv
B2: CDH3-9 (scFv)
scFv: EVQLVEESGGDLVKPGGSLKLSCAASGFTFSTYGMSWVRQTPDKRLEWVATISSGGHYSYYPDSVKGRFTISRDNAKNTLYLQMSSLKSEDTAMYYCASYYYGSPFAYWGQGTTVTVSSGGGGSGGGGSGGGGSELQMTQSPSSLSASLGERVSLTCRASQDIGSSLNWLQQKPDGTIKRLIYDTSSLDSGVPKRFSGSRSGSDYSLTISSLESEDFGDYYCVQYGSSPLTFGAGTKLEIK
notes: Used as crude periplasmic extract and detected through a FLAG tag; also called CDH3-9 scFv
B3: CDH3-10 scFv (scFv)
scFv: EVQLVEESGGGLVKPGGSLKLSCAASGFTFSSYAMSWVRQTPDKRLEWVATISSGGHYTYYPDSVKGRFTISRDNAKNTLYLQMSSLKSEDTAMYYCASYYYGIPFGYWGQGTTVTVSSGGGGSGGGGSGGGGSELVMTQSPSSLSASLGEGVSLTCRASQDIGINLIWLRQEPDGTIKRLIYDTSSLDSGVPKRFSGSRSGSDYSLTISSLESEDFVHYYCLQYGSSPLTFGAGTKLEIK

Target: T1, Hu CDH3 Dom2 mu (aa 216-327), …
Assay: flow cytometry, transfected CHO cells; crude undiluted periplasmic scFv extract; anti-FLAG M2 + anti-mouse IgG Fcγ-PE; control PBS/2% FCS
Procedure: (§1) Cells transfected with human or murine CDH3, or with the chimeric human/mouse CDH3 molecules (see Example 1) were stained with crude, undiluted periplasmic extract containing scFv binding to human/macaque CDH3. […] As negative control, cells were incubated with PBS/2% FCS instead of the periplasmic extract. The samples were measured by flow cytometry.

Binding result, binds:
B1
B2
B3

Target: T2, Hu CDH3 Dom1C mu (aa 180-215), …
Assay: as above
Procedure: as §1

Binding result, binds:
B1
B2
B3

target: T4, human CDH3 (P-cadherin) on cells (human, UniProt P22223 108-829); assay: as above
T4 construct: The entry includes signal peptide and pro-peptide; extracellular domain D1 starts at aa 108; also called hu CDH3; hu CDH-3
Procedure: as §1

Binding result, binds:
B1
B2
B3

target: Hu CDH3 Dom3 mu (aa 328-440), human/mouse chimeric CDH3 on CHO cells (chimeric hu/mu); assay: as above
Procedure: as §1

Binding result, binds:
B1
B2
B3

target: T3, murine CDH3 on cells; assay: flow cytometry, transfected CHO cells; crude periplasmic scFv extract; anti-FLAG M2 + anti-mouse IgG Fcγ-PE
Procedure: as §1

Binding result, no binding:
B1
B2
B3
